System: MS2 coat protein
Assay: apparent KD of MS2 coat protein; designed switch direction (-1 OFF switch, 1 ON switch): -1; higher = weaker reporter binding
In short: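 SNAP-549-labelled MS2 coat protein was titrated, doubling from 0.7 or 1.5 nM to 3 µM, over designed RNA switches transcribed on Illumina chips by stalled E. coli RNA polymerase. Runs were done without input, with 200 uM small-molecule ligand, or with an oligonucleotide input. Apparent KD is the per-design median over clusters of curve-fitted normalised fluorescence.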

[1] = Eterna round: R95, input ligand: FMN 200 uM
[2] = Eterna round: R95, input ligand: microRNA oligo, concentration not stated
[3] = Eterna round: R95, input ligand: none
[4] = input ligand: microRNA oligo, concentration not stated

Sequence: UCCGAAGCAGGAUAUACAUGAGGAUCACCCAUGUGCUUGCAUGGCGUGGGAAGUCAUAGUAGAAGGGCUACGCC [jl-ex3-4.71 ViennaUCT mod] (Eterna round: R97, puzzle: Exclusion 3)
- apparent KD of MS2 coat protein (input ligand: FMN 200 uM): 53.1 nM
- apparent KD of MS2 coat protein (input ligand: none): 33.7 nM

Sequence: UCCGUGUCAGGAUAUAACUGGUCGAGCGCAGAAGCGUCCUGUUAGAAGGGACAUGAGGAUCACCCAUGUUUAAC [Eternabot (L1) Solution 74] (Eterna round: R97, puzzle: Exclusion 4)
- apparent KD of MS2 coat protein (input ligand: FMN 200 uM): 213 nM
- apparent KD of MS2 coat protein (input ligand: none): 38.5 nM

Sequence: UCCGUGUGAGGAUAUGCGAAUGACGAGUUACCUUGUCGCAAGCAGAAGGUACAUGAGGAUCACCCAUGUCCUAU [Eternabot (L1) Solution 61] (Eterna round: R97, puzzle: Exclusion 4)
- apparent KD of MS2 coat protein (input ligand: FMN 200 uM): 27.8 nM
- apparent KD of MS2 coat protein (input ligand: none): 20.4 nM

Sequence: UCCUGACAUGAGGAUCACCCAUGUGAGGAUAUGUGGUUCGGGUCAACUCCCGUUCCGUGCAGAAGGCACAGGGC [EX1 A.29] (Eterna round: R97, puzzle: Exclusion 1)
- apparent KD of MS2 coat protein (input ligand: FMN 200 uM): 26.4 nM
- apparent KD of MS2 coat protein (input ligand: none): 16.2 nM

Sequence: UCCUUGUUGGAGGAUAUGCAUAGCAUCACGCCUGUAGAAGGCCAAACAUGAGGAUCACCCAUGUGCAUGGGAUG [Eternabot (L1) Solution 77] (Eterna round: R97, puzzle: Exclusion 6)
- apparent KD of MS2 coat protein (input ligand: FMN 200 uM): 244 nM
- apparent KD of MS2 coat protein (input ligand: none): 216 nM

Sequence: UCGAGGUCAGGAUAUACAUGAGGAUCACCCAUGUGGAUGUAAGGUAGGAGAAGAGUAGGUAGAAGGGACGAGAG [JR_Exclu3_Sub049] (puzzle: Exclusion 3)
- apparent KD of MS2 coat protein [1]: 46.7 nM
- apparent KD of MS2 coat protein [2]: 37.8 nM
- apparent KD of MS2 coat protein [3]: 55.4 nM

Sequence: UCGAUGUGAGGAUAUAACAGGACGAACUCUUAAUAGUACGGUUAGAAGGCACAUGAGGAUCACCCAUGUGACGA [EX4 B.27] (Eterna round: R97, puzzle: Exclusion 4)
- apparent KD of MS2 coat protein (input ligand: FMN 200 uM): 40.1 nM
- apparent KD of MS2 coat protein (input ligand: none): 17.7 nM

Sequence: UCGCUGCGAGGAUAUACAUGAGGAUCACCCAUGUGCGGGUCCGGGUCUUCGUCCAUUAGUAGAAGGCGCAGUGA [JL Laongeedie mod 4] (Eterna round: R96, puzzle: Exclusion 3)
- apparent KD of MS2 coat protein (input ligand: FMN 200 uM): 705 nM
- apparent KD of MS2 coat protein [4]: 112 nM
- apparent KD of MS2 coat protein (input ligand: none): 119 nM

Sequence: UCGCUGCGAGGAUAUACAUGAGGAUCACCCAUGUGCGGGUCCGGGUCUUCGUCCAUUAGUAGAAGGCGCAGUGA [JL Laongeedie mod 4] (puzzle: Exclusion 3)
- apparent KD of MS2 coat protein [2]: 99.9 nM

Sequence: UCGCUGCGAGGAUAUACAUGAGGAUCACCCAUGUGCGGGUCCGGGUCUUCGUCCAUUGGUAGAAGGCGCAGUGA [JL Laongeedie mod 6] (puzzle: Exclusion 3)
- apparent KD of MS2 coat protein [2]: 43 nM

Sequence: UCGGCGUCAGGAUAUCCAAUAUAUGACAUGAGGAUCACCCAUGUUUCCACUCGUACCUCCGGAGAAGGGACGAAUA [Ex5 #91] (Eterna round: R97, puzzle: Exclusion 5)
- apparent KD of MS2 coat protein (input ligand: FMN 200 uM): 30.9 nM
- apparent KD of MS2 coat protein (input ligand: none): 35.7 nM

Sequence: UCGGGCUCAGAGGAUAUGGGCGAAAAUAUAAAACCAGAAGGCUGAACUUGAGGAUCACCCAAGUACGGGCAAAA [Inxeridi] (Eterna round: R97, puzzle: Exclusion 6)
- apparent KD of MS2 coat protein (input ligand: FMN 200 uM): 143 nM
- apparent KD of MS2 coat protein (input ligand: none): 67.9 nM

Sequence: UCGUUCCGUGUAGGAUAUUGGCCUUCUCUGGGCCGAGAAGGACAUGAGGAUCACCCAUGUAUGUUAUUAUCGCGCGUGGCGCAU [Design 85] (Eterna round: R96, puzzle: Exclusion NG 1)
- apparent KD of MS2 coat protein [4]: 24.7 nM

Sequence: UCUAGACAUGAGGAUCACCCAUGUGAGGAUAUGAUGCGAUCGUCGAAAGACGAUAGCAUCAGAAGGCACAUAUG [Fiskers Ex 1 - 4] (puzzle: Exclusion 1)
- apparent KD of MS2 coat protein [2]: 117 nM

Sequence: UCUAGCUUUUUGCGUCAAGCAUUGAAGUCUGUGAUCGUUACAUGAGGAUCACCCAUGUAUGUUUUAUGUCGUCUUGU [JR_SV3TOV2_Sub099] (puzzle: Sensor v3, turn-off variant 2)
- apparent KD of MS2 coat protein [1]: 37.2 nM
- apparent KD of MS2 coat protein [2]: 33.1 nM
- apparent KD of MS2 coat protein [3]: 43.9 nM

Sequence: UCUAUUUUGCGAGGAUAUCGACCAUUCCUCUUUACAUGAGGAUCACCCAUGUUCUUUUUCUACAACGAGAAGGCGCUCAUAGUU [JR_ExcNG2_Sub062] (Eterna round: R96, puzzle: Exclusion NG 2)
- apparent KD of MS2 coat protein (input ligand: FMN 200 uM): 73.5 nM
- apparent KD of MS2 coat protein [4]: 67.7 nM
- apparent KD of MS2 coat protein (input ligand: none): 61.6 nM

Sequence: UCUCAGCCUAAGGAUAUGAGCCGAACCAAAAGUUCAGAAGGUAGGACAUGAGGAUCACCCAUGUGAGCCUACAC [Eternabot (Original) Solution 39] (Eterna round: R97, puzzle: Exclusion 6)
- apparent KD of MS2 coat protein (input ligand: FMN 200 uM): 34.3 nM
- apparent KD of MS2 coat protein (input ligand: none): 21.3 nM

Sequence: UCUCGAAGGCAAGGAUAUCCUACAUUGUUCUGGCCCGGGCAUGCUACAUGAGGAUCACCCAUGUGGGAGAAGGUGCGCCACUGC [Design 28] (Eterna round: R96, puzzle: Exclusion NG 2)
- apparent KD of MS2 coat protein (input ligand: FMN 200 uM): 69.6 nM
- apparent KD of MS2 coat protein [4]: 47.1 nM
- apparent KD of MS2 coat protein (input ligand: none): 72 nM

Sequence: UCUCGACAUGAGGAUCACCCAUGUCAGGAUAUUGUAUUAGAGGUUUUUUACCUUAUAACAAGAAGGGAUGUGUG [LRO-Excl1-23] (puzzle: Exclusion 1)
- apparent KD of MS2 coat protein [2]: 23.6 nM

Sequence: UCUCGCUGGCGAGGAUAUCCUGUGCGGUUCCGGCUCGUGUCUGUUACAUGAGGAUCACCCAUGUGGGAGAAGGUGCCUGUGGCU [Design 94] (Eterna round: R96, puzzle: Exclusion NG 2)
- apparent KD of MS2 coat protein [4]: 22 nM

Sequence: UCUCUGCGAGGAUAUACGUUUGCGCGCUUUCGUUUGCGCGUACAUGAGGAUCACCCAUGUAGAAGGCGCGUUUC [Apr-15 SS2-9] (puzzle: Exclusion 2)
- apparent KD of MS2 coat protein [2]: 12.6 nM

Sequence: UCUCUGUGAGGAUAUUGAACGACGCCGCUAACGGGCUUGCACAAGAAGGCACAUGAGGAUCACCCAUGUCCCGA [EX4 B.28] (Eterna round: R97, puzzle: Exclusion 4)
- apparent KD of MS2 coat protein (input ligand: FMN 200 uM): 29.1 nM
- apparent KD of MS2 coat protein (input ligand: none): 20.7 nM

Sequence: UCUGCCGCUGUGAGGAUAUGCCCAAAUAAAAGCGGGCAGAAGGCACAUGAGGAUCACCCAUGUCCUGCGGUUUU [salish99_bmx4_r4_143] (Eterna round: R97, puzzle: Brourd's mod of Exclusion 4)
- apparent KD of MS2 coat protein (input ligand: FMN 200 uM): 180 nM
- apparent KD of MS2 coat protein (input ligand: none): 28.8 nM

Sequence: UCUUUAGGUGUUAGGAUAUACCUGCGCAAAGUUAGGUAGAAGGGACAUGAGGAUCACCCAUGUGCGUCCACAAU [Eternabot (L1) Solution 29] (Eterna round: R97, puzzle: Brourd's mod of Exclusion 4)
- apparent KD of MS2 coat protein (input ligand: FMN 200 uM): 30.4 nM
- apparent KD of MS2 coat protein (input ligand: none): 27.5 nM

Sequence: UGAGCAUGAGGAUAUACAAGGCGACCGUGAGGUCGAGGUUUACAUGAGGAUCACCCAUGUAGAAGGCAUGUUCU [jl-ex2-4.07] (Eterna round: R97, puzzle: Exclusion 2)
- apparent KD of MS2 coat protein (input ligand: FMN 200 uM): 40.2 nM
- apparent KD of MS2 coat protein (input ligand: none): 20 nM

Sequence: UGAGCUUGAGGAUAUACAAUGAGCUUGAGAAAUCGAGUUCGACAUGAGGAUCACCCAUGUAGAAGGCGAGUUCG [-37.5, -35.6 kcal, A 28% 1 and 1] (Eterna round: R97, puzzle: Exclusion 2)
- apparent KD of MS2 coat protein (input ligand: FMN 200 uM): 28.1 nM
- apparent KD of MS2 coat protein (input ligand: none): 17.7 nM

Sequence: UGAUCACAUGAGGAUCACCCAUGUCAGGAUAUCGUCACUGGAGCUGCGGCUCCAGUGACGAGAAGGGAUAUAAU [E1/5-A3] (Eterna round: R97, puzzle: Exclusion 1)
- apparent KD of MS2 coat protein (input ligand: FMN 200 uM): 293 nM
- apparent KD of MS2 coat protein (input ligand: none): 104 nM

Sequence: UGAUCACAUGAGGAUCACCCAUGUCAGGAUAUCUACAUUGAAGCCUCGGCUUCAAUGUAGAGAAGGGAUAUAAU [E1/5-B2] (Eterna round: R97, puzzle: Exclusion 1)
- apparent KD of MS2 coat protein (input ligand: FMN 200 uM): 189 nM
- apparent KD of MS2 coat protein (input ligand: none): 86.8 nM

Sequence: UGAUCUAGCGGAGGAUAUACAUGAGGAUCACCCAUGUAUAGGCUAUGACCGUAGUCGUGGAACAUGUAGAAGGCCGCUAGAUCU [JL ENG2 3.79] (Eterna round: R96, puzzle: Exclusion NG 2)
- apparent KD of MS2 coat protein (input ligand: FMN 200 uM): 569 nM
- apparent KD of MS2 coat protein [4]: 40.3 nM
- apparent KD of MS2 coat protein (input ligand: none): 45.9 nM

Sequence: UGAUGACAUGAGGAUCACCCAUGUCAGGAUAUUGAUCGUGAUCGGAAAUGAUCGUGAUCGAGAAGGGACUGUCG [-24.4, -21.4 kcal, A 28%, 2] (Eterna round: R97, puzzle: Exclusion 1)
- apparent KD of MS2 coat protein (input ligand: FMN 200 uM): 31.8 nM
- apparent KD of MS2 coat protein (input ligand: none): 27.6 nM

Sequence: UGAUUGUUUACCAGGUUAUACAUGAGGAUCACCCAUGUAGAUCCUACGUGCGCGUUAUACCGCUCGUCUUAUUCCCA [Sensor-V1 #77] (Eterna round: R97, puzzle: Sensor, turn-off variant 1)
- apparent KD of MS2 coat protein (input ligand: FMN 200 uM): 19.1 nM
- apparent KD of MS2 coat protein (input ligand: none): 19.8 nM

Sequence: UGCAGACGAGGAUAUAGAUUUAGAUACAUGAGGAUCACCCAUGUAUAUAUGUAUUUAGAUUUAGAAGGCGUCUGCU [E5/15-A4] (Eterna round: R97, puzzle: Exclusion 5)
- apparent KD of MS2 coat protein (input ligand: FMN 200 uM): 240 nM
- apparent KD of MS2 coat protein (input ligand: none): 283 nM

Sequence: UGCCUAUGAGGAUAUACAUUGAAUAAGAUUCAUGUAAAACUACAUGAGGAUCACCCAUGUAGAAGGCAUGGGCU [Mat - Exclusion 2 - JL Mod - D70] (Eterna round: R97, puzzle: Exclusion 2)
- apparent KD of MS2 coat protein (input ligand: FMN 200 uM): 29 nM
- apparent KD of MS2 coat protein (input ligand: none): 19.1 nM

Reference: the supplement of paper PMC9170038
